Laboratory results taken from IntAct's records for PubMed 29039417.

B1: BBSome-interacting protein 1 (Homo sapiens), A8MTZ0 (parent)
chain: MLKAAAKRPELSGKNTISNNSDMAEVKSMFREVLPKQGPLFVEDIMTMVLCKPKLLPLKSLTLEKLEKMHQAAQNTIRQQEMAEKDQRQITH
partner: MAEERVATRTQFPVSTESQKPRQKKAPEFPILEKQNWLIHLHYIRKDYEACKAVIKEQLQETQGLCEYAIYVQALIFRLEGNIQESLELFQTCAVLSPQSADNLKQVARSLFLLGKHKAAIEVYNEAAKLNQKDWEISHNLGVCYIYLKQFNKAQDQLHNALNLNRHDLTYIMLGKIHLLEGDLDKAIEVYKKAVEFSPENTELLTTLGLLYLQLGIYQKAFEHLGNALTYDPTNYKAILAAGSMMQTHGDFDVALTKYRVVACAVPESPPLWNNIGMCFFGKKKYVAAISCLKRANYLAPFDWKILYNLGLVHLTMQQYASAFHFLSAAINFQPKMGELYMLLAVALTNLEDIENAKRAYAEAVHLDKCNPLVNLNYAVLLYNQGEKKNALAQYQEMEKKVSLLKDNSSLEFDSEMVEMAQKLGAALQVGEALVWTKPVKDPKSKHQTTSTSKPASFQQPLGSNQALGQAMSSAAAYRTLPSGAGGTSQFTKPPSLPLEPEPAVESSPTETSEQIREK

Variants of: B1
Settings: with bbs4_human BBS4, Q96RK4
With A24K the “effect of a mutation on the interaction” value was “with no effect”.
In the case of A24E, the “effect of a mutation on the interaction” value is reported as “with no effect”.
With A5E the “effect of a mutation on the interaction” value was “with no effect”.
With A5K the “effect of a mutation on the interaction” value was “with no effect”.
With R31E the “effect of a mutation on the interaction” value was “with no effect”.
For R31A, the “effect of a mutation on the interaction” value was “with no effect”.
With R31K the “effect of a mutation on the interaction” value was “with no effect”.
In the case of G38E, the “effect of a mutation on the interaction” value is reported as “with no effect”.
For G38A, the “effect of a mutation on the interaction” value was “with no effect”.
For G38K, the “effect of a mutation on the interaction” value was “with no effect”.
V49A was tested, and the “effect of a mutation on the interaction” value was “with no effect”.
V49K was tested, and the “effect of a mutation on the interaction” value was “with no effect”.
With V49E the “effect of a mutation on the interaction” value was “with no effect”.
T16E was tested, and the “effect of a mutation on the interaction” value was “with no effect”.
For T16K, the “effect of a mutation on the interaction” value was “with no effect”.
With T16A the “effect of a mutation on the interaction” value was “with no effect”.
With L55K the “effect of a mutation on the interaction” value was “with no effect”.
In the case of L55E, the “effect of a mutation on the interaction” value is reported as “with no effect”.
In the case of L55A, the “effect of a mutation on the interaction” value is reported as “with no effect”.
In the case of E10A, the “effect of a mutation on the interaction” value is reported as “with no effect”.
E10K was tested, and the “effect of a mutation on the interaction” value was “with no effect”.
In the case of Q37A, the “effect of a mutation on the interaction” value is reported as “with no effect”.
In the case of Q37E, the “effect of a mutation on the interaction” value is reported as “with no effect”.
With Q37K the “effect of a mutation on the interaction” value was “with no effect”.
S28E was tested, and the “effect of a mutation on the interaction” value was “with no effect”.
In the case of S28A, the “effect of a mutation on the interaction” value is reported as “with no effect”.
For S28K, the “effect of a mutation on the interaction” value was “with no effect”.
K36A was tested, and the “effect of a mutation on the interaction” value was “with no effect”.
For K36P, the “effect of a mutation on the interaction” value was “disrupting interaction strength”.
In the case of K36E, the “effect of a mutation on the interaction” value is reported as “with no effect”.
With K36Y the “effect of a mutation on the interaction” value was “disrupting interaction strength”.
For M1A, the “effect of a mutation on the interaction” value was “with no effect”.
For M1E, the “effect of a mutation on the interaction” value was “with no effect”.
M1K was tested, and the “effect of a mutation on the interaction” value was “with no effect”.
In the case of V33K, the “effect of a mutation on the interaction” value is reported as “with no effect”.
With V33E the “effect of a mutation on the interaction” value was “with no effect”.
For V33A, the “effect of a mutation on the interaction” value was “with no effect”.
In the case of P39K, the “effect of a mutation on the interaction” value is reported as “with no effect”.
In the case of P39E, the “effect of a mutation on the interaction” value is reported as “with no effect”.
P39A was tested, and the “effect of a mutation on the interaction” value was “with no effect”.
With D44A the “effect of a mutation on the interaction” value was “with no effect”.
With D44K the “effect of a mutation on the interaction” value was “with no effect”.
In the case of D44E, the “effect of a mutation on the interaction” value is reported as “with no effect”.
With K52Y the “effect of a mutation on the interaction” value was “disrupting interaction strength”.
In the case of K52A, the “effect of a mutation on the interaction” value is reported as “with no effect”.
With K52I the “effect of a mutation on the interaction” value was “disrupting interaction strength”.
For K52E, the “effect of a mutation on the interaction” value was “with no effect”.
In the case of K7A, the “effect of a mutation on the interaction” value is reported as “with no effect”.
K7E was tested, and the “effect of a mutation on the interaction” value was “with no effect”.
K27Y was tested, and the “effect of a mutation on the interaction” value was “disrupting interaction strength”.
With K27S the “effect of a mutation on the interaction” value was “disrupting interaction strength”.
In the case of K27A, the “effect of a mutation on the interaction” value is reported as “with no effect”.
With K27E the “effect of a mutation on the interaction” value was “with no effect”.
In the case of K27L, the “effect of a mutation on the interaction” value is reported as “disrupting interaction strength”.
For S18K, the “effect of a mutation on the interaction” value was “with no effect”.
In the case of S18E, the “effect of a mutation on the interaction” value is reported as “with no effect”.
With S18A the “effect of a mutation on the interaction” value was “with no effect”.
In the case of A4E, the “effect of a mutation on the interaction” value is reported as “with no effect”.
In the case of A4K, the “effect of a mutation on the interaction” value is reported as “with no effect”.
In the case of P35S, the “effect of a mutation on the interaction” value is reported as “disrupting interaction strength”.
In the case of P35R, the “effect of a mutation on the interaction” value is reported as “disrupting interaction strength”.
In the case of P35K, the “effect of a mutation on the interaction” value is reported as “with no effect”.
With P35E the “effect of a mutation on the interaction” value was “with no effect”.
P35T was tested, and the “effect of a mutation on the interaction” value was “disrupting interaction strength”.
For P35A, the “effect of a mutation on the interaction” value was “with no effect”.
With I17K the “effect of a mutation on the interaction” value was “with no effect”.
I17A was tested, and the “effect of a mutation on the interaction” value was “with no effect”.
In the case of I17E, the “effect of a mutation on the interaction” value is reported as “with no effect”.
With N20A the “effect of a mutation on the interaction” value was “with no effect”.
N20K was tested, and the “effect of a mutation on the interaction” value was “with no effect”.
For N20E, the “effect of a mutation on the interaction” value was “with no effect”.
S12A was tested, and the “effect of a mutation on the interaction” value was “with no effect”.
In the case of S12K, the “effect of a mutation on the interaction” value is reported as “with no effect”.
For S12E, the “effect of a mutation on the interaction” value was “with no effect”.
E43A was tested, and the “effect of a mutation on the interaction” value was “with no effect”.
For E43K, the “effect of a mutation on the interaction” value was “with no effect”.
In the case of G13E, the “effect of a mutation on the interaction” value is reported as “with no effect”.
G13A was tested, and the “effect of a mutation on the interaction” value was “with no effect”.
In the case of G13K, the “effect of a mutation on the interaction” value is reported as “with no effect”.
With R8A the “effect of a mutation on the interaction” value was “with no effect”.
For R8K, the “effect of a mutation on the interaction” value was “with no effect”.
With R8E the “effect of a mutation on the interaction” value was “with no effect”.
K3E was tested, and the “effect of a mutation on the interaction” value was “with no effect”.
K3A was tested, and the “effect of a mutation on the interaction” value was “with no effect”.
For E25A, the “effect of a mutation on the interaction” value was “with no effect”.
With E25K the “effect of a mutation on the interaction” value was “with no effect”.
In the case of F41K, the “effect of a mutation on the interaction” value is reported as “with no effect”.
